Measurements published in patent US20130195874A1 (ADRENOMED, published 2013).
Like-named read-outs stand apart in the source and are kept apart here.

B3: human adrenomedullin (hADM 1-52) (peptide)
peptide: YRQSMNNFQGLRSFGCRFGTCTVQKLAHQIYQFTDKDKDNVAPRSKISPQGY

Legend:
[1] = biological target: ADM (human or mouse not stated for this entry); test: cell-based or functional assay
[2] = biological target: B3; test: cell-based or functional assay
[3] = biological target: B3; test: SPR (Biacore 2000), antibody captured via anti-mouse Fc, Adrenomedullin in solution
Experimental: Reversible immobilization of the antibodies was performed using an anti-mouse Fc antibody covalently coupled in high density to a CM5 sensor surface according to the manufacturer's instructions (mouse antibody capture kit; GE Healthcare). (Lorenz et al.,” Functional Antibodies Targeting IsaA of Staphylococcus aureus Augment Host Immune Response and Open New Perspectives for Antibacterial Therapy”; Antimicrob Agents Chemother. 2011 January; 55(1): 165-173.)

[4] = biological target: B3; test: cell-based or functional assay
[5] = biological target: T1, human recombinant adrenomedullin receptor (CRLR+RAMP3) (human); test: cell-based or functional assay
T1 chain: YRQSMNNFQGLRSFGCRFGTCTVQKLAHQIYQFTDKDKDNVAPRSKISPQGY

[6] = biological target: T1, human recombinant adrenomedullin …; test: cell-based or functional assay

Molecule: Non specific mouse IgG (antibody)
- Maximal inhibition of ADM bioactivity (ADM-Bioassay) (%) [1]: 0%

B1: NT-H (antibody, V domains shown)
VH: QVQLQQSGAELMKPGASVKISCKATGYTFSRYWIEWVKQRPGHGLEWIGEILPGSGSTNYNEKFKGKATITADTSSNTAYMQLSSLTSEDSAVYYCTEGYEYDGFDYWGQGTTLTVSS
VL: DVLLSQTPLSLPVSLGDQATISCRSSQSIVYSNGNTYLEWYLQKPGQSPKLLIYRVSNRFSGVPDRFSGSGSGTDFTLKISRVEAEDLGVYYCFQGSHIPYTFGGGTKLEIK
notes: also called NT-H antibody; antibody NT-H
- IC50 (read off the curve) [2]: ~2 µg/mL
- Kd [3]: 5.9 nM
- stability of hADM in human citrate plasma with NT-H against hADM alone [4]: 2.3 fold

B2: mouse adrenomedullin (mADM 1-50) (peptide)
peptide: YRQSMNQGSRSNGCRFGTCTFQKLAHQIYQLTDKDKDGMAPRNKISPQGYNH
- EC50 (read off the curve) [5]: ~0.08 nM

Molecule: B3
- EC50 (read off the curve) [6]: ~1 nM
